Measured values taken from patent US20210071139A1.

These substances were tested against TOX (UniProt Q66JW3) (assay: TOX IP-MS, EL4 nuclear extract, MiST; row of the bait itself).
Sequence of TOX (Q66JW3 whole entry): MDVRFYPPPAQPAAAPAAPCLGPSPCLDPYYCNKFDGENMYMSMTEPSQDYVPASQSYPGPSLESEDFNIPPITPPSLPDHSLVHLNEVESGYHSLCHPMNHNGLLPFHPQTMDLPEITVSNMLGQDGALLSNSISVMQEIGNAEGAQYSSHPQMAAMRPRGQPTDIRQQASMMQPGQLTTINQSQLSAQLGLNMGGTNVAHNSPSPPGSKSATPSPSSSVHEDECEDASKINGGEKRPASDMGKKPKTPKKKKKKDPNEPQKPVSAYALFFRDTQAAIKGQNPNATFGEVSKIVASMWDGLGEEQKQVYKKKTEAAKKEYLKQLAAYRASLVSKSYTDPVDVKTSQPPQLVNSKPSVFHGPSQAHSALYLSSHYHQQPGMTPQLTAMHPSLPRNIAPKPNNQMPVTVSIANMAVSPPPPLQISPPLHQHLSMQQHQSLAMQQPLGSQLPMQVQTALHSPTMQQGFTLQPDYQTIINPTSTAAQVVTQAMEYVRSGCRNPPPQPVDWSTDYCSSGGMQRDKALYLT

| Substance | Abundance | MiST Score | Reproducibility | Specificity |
| --- | --- | --- | --- | --- |
| anti-TOX antibody (Abcam, ab155768) | 0.00704 | 0.976 | 0.964 | 0.99 |

The substances below were run against TOX (UniProt Q66JW3) (assay: anti-TOX IP from EL4 nuclear extract, LC-MS/MS, MiST vs IgG control).

| Substance | Abundance | MiST Score | Reproducibility | Specificity |
| --- | --- | --- | --- | --- |
| Yme1l1 (from UniProt O88967 1-715) (enzyme) | 1.45e-05 | 0.75 | 0.988 | 0.65 |
| Raver1 (from UniProt Q9CW46 2-748) | 4.89e-05 | 0.762 | 0.839 | 0.734 |
| Cnot10 (from UniProt Q8BH15 2-744) | 8.51e-06 | 0.751 | 0.946 | 0.669 |
| Ap2a1 (from UniProt P17426 1-977) | 2.47e-06 | 0.754 | 0.846 | 0.719 |
| Pabpn1 (from UniProt Q8CCS6 2-302) | 8.22e-05 | 0.759 | 0.992 | 0.66 |
| Bclaf1 (from UniProt Q8K019 1-919) | 6.73e-05 | 0.756 | 0.872 | 0.71 |
| Pop1 | 2.18e-06 | 0.754 | 0.906 | 0.693 |
| Pnn (from UniProt O35691 2-725) | 7.35e-05 | 0.762 | 0.681 | 0.805 |
| Gatad2b (from UniProt Q8VHR5 1-594) | 1.65e-05 | 0.752 | 0.863 | 0.708 |
| Gatad2a (from UniProt Q8CHY6 1-629) | 1.98e-05 | 0.76 | 0.908 | 0.7 |
| Abcf1 (from UniProt Q6P542 1-837) | 1.12e-05 | 0.76 | 0.747 | 0.773 |
| Thoc6 (from UniProt Q5U4D9 1-341) | 3.97e-05 | 0.76 | 0.994 | 0.661 |
| Ebna1bp2 (from UniProt Q9D903 1-306) | 9.4e-05 | 0.752 | 0.984 | 0.654 |
| Ccdc86 (from UniProt Q9JJ89 1-426) | 3.82e-05 | 0.751 | 0.964 | 0.662 |
| Nol7 (from UniProt Q9D7Z3 1-254) | 0.000128 | 0.757 | 0.972 | 0.666 |
